Among the data in paper PMC5430726 (2017) are Kd values, retold here.

In the test the target is T1, SLP65 peptide (Homo sapiens, UniProt Q8WV28).
T1 chain: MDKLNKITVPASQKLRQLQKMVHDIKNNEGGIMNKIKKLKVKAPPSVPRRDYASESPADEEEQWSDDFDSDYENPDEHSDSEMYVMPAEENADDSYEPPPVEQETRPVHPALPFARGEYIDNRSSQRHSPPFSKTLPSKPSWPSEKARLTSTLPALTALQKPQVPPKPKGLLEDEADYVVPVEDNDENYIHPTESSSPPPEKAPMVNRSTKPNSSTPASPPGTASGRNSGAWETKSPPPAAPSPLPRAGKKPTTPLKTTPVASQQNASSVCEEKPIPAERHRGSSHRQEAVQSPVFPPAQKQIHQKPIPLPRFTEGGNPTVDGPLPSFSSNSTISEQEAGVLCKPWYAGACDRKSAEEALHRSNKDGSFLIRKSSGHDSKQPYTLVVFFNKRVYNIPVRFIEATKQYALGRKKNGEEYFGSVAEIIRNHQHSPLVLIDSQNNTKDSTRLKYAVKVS
The experiment in a line: ITC. A general note: ITC needs no label: the signal is the heat of the interaction.

B1: Grb2 SH3C (protein)
chain: QQPTYVQALFDFDPQEDGELGFRRGDFIHVMDNSDPNWWKGACHGQTGMFPRNYVTPVNR
modifications: Grb2 SH3C pre-bound to Vav SH3N
Consider B1, for which the Kd – broadly, the free concentration of one partner at which half of the binding sites on the other are occupied at equilibrium, for simple one-to-one binding – is 33.3 µM.
